According to article PMC12948210 (2025):

Tests used:
Assay in all cases: GST pull-down; 500 mM NaCl; denaturing pull-down (His-DDX21 purified in urea or guanidine)
[1] = target: T1, GST-tagged EIF1AX RBP fragment (Homo sapiens (Human), UniProt P47813)
T1 chain: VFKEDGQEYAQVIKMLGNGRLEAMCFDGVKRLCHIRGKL

[2] = target: T2, GST-tagged EIF1AX IDR1 fragment (Homo sapiens (Human), UniProt P47813)
T2 chain: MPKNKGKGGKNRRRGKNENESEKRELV

[3] = target: T3, GST-tagged EIF1AX IDR2 fragment (Homo sapiens (Human), UniProt P47813)
T3 chain: DIGDDDEDIDDI

B1: His-DDX21 (protein)
chain: MPGKLRSDAGLESDTAMKKGETLRKQTEEKEKKEKPKSDKTEEIAEEEETVFPKAKQVKKKAEPSEVDMNSPKSKKAKKKEEPSQNDISPKTKSLRKKKEPIEKKVVSSKTKKVTKNEEPSEEEIDAPKPKKMKKEKEMNGETREKSPKLKNGFPHPEPDCNPSEAASEESNSEIEQEIPVEQKEGAFSNFPISEETIKLLKGRGVTFLFPIQAKTFHHVYSGKDLIAQARTGTGKTFSFAIPLIEKLHGELQDRKRGRAPQVLVLAPTRELANQVSKDFSDITKKLSVACFYGGTPYGGQFERMRNGIDILVGTPGRIKDHIQNGKLDLTKLKHVVLDEVDQMLDMGFADQVEEILSVAYKKDSEDNPQTLLFSATCPHWVFNVAKKYMKSTYEQVDLIGKKTQKTAITVEHLAIKCHWTQRAAVIGDVIRVYSGHQGRTIIFCETKKEAQELSQNSAIKQDAQSLHGDIPQKQREITLKGFRNGSFGVLVATNVAARGLDIPEVDLVIQSSPPKDVESYIHRSGRTGRAGRTGVCICFYQHKEEYQLVQVEQKAGIKFKRIGVPSATEIIKASSKDAIRLLDSVPPTAISHFKQSAEKLIEEKGAVEALAAALAHISGATSVDQRSLINSNVGFVTMILQCSIEMPNISYAWKELKEQLGEEIDSKVKGMVFLKGKLGVCFDVPTASVTEIQEKWHDSRRWQLSVATEQPELEGPREGYGGFRGQREGSRGFRGQRDGNRRFRGQREGSRGPRGQRSGGGNKSNRSQNKGQKRSFSKAFGQ
binding result [1]: binds | binding result [2]: no binding | binding result [3]: no binding
